What was measured:
[1] = substrate: CCN(CC)c1ccc(C(=C2C=CC(=[N+](CC)CC)C=C2)c2ccccc2)cc1; assay: purified protein; assay type: biochemical, Saccharomonospora viridis; conditions: H2O2 co-substrate (0.1 mM in all tests), 50 mM phosphate pH 7.0, standard assay 60°C, temperature of kinetics not stated
[2] = substrate: Nc1c(S(=O)(=O)O)cc(Nc2cccc(S(=O)(=O)CCOS(=O)(=O)O)c2)c2c1C(=O)c1ccccc1C2=O; assay: purified protein; assay type: biochemical, Saccharomonospora viridis; conditions: H2O2 co-substrate (0.1 mM in all tests), 50 mM phosphate pH 7.0, standard assay 60°C, temperature of kinetics not stated

B1: SviDyP (Saccharomonospora viridis) (protein)
chain: MKGRRFGRRAFLATGAAALGGAAALGGRELFTGDGGADGRDRPDRGDIGRATVDFHGERQAGVATPAQAFATFVAFDLLDGVDREALIRWMRVWTDDIERLTRGAPALTDTEPELALLPARLTVTVGFGPGFLAAAGREELRPSWLAPLPEFPIDRLREEFSGGDLVAQVCADDEVTVAHAVRVLTKQARSFARPRWVQRGFRNTPGAVPEGATMRNLMGQLDGTRNLRPGPDDRLIWISDGPEWLRGGTGMVVRRIAMNLDTWDELDRPARELVIGRRLDNGAPLTGRHEHDEPDLEAVDERGLSVIPMFAHIRRARSDNPDERFLRRSYNYDDPPEPGELSNSGLVFVTFQADIEAQFTPIQRRLAELDSLNDWTTPIGSAVFAVPRGCRPGEYLGQPLLEA
notes: Ni-NTA and Sephadex G-75; tag removal not mentioned; ~45 kDa on SDS-PAGE
Km [1]: 58.87 ± 4.7 µM
Km [2]: 210.2 ± 16.5 µM
